Data on 1 molecule can be found in patent US20150299301A1 (published 2015).

The target in this assay is T1, mouse serum albumin (mouse, UniProt P07724 25-608).
T1 construct: also called MSA; mouse albumin
As to the kind of experiment: phage on blotted plasma (1/10).

T1 sequence (P07724 25-608 limits assumed): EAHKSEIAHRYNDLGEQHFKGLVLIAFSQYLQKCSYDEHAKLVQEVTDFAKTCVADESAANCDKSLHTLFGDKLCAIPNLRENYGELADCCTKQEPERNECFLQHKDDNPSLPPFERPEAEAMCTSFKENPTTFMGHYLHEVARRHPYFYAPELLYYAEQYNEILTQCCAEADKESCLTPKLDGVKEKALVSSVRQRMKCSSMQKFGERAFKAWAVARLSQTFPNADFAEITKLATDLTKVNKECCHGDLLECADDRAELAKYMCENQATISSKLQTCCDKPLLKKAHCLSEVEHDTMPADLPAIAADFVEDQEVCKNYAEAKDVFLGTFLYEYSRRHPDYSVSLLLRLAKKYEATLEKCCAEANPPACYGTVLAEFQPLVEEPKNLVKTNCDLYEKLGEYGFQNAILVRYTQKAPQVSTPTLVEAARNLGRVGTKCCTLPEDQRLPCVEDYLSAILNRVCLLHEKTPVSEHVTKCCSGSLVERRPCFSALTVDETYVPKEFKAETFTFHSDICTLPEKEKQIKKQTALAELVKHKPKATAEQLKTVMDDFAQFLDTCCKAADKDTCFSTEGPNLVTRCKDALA
Method: A SDS-PAGE was run for plasma (1/10 dilution) from different species (baboon, pig, hamster, human, rat. mouse and rabbit) and blotted on a nitrocellulose membrane. Phages were prepared for clones MSA 21. […] Phages were allowed to bind to the nitrocellulose blotted serum albumins and unbound phages were washed away. Binding was detected with a anti-M13 polyclonal antibody coupled to HRP. DAP was used as a substrate for detection.

B1: MSA24 (VHH)
VHH: QVQLQESGGGLVQPGNSLRLSCAASGFTFRNFGMSWVRQAPGKEPEWVSSISGSGSNTIYADSVKDRFTISRDNAKSTLYLQMNSLKPEDTAVYYCTIGGSLSRSSQGTQVTVSS
On to B1, for which the binding result was “binds”.
